# Results published in patent US20030124505.
# Molecular target: RecA recombinase (UniProt P0A7G6)
# Conditions: second round manual capture from 1:10,000 pHPRT:pUC library; automated 59%; first round 2% and 1.35%
# Sequence of RecA recombinase (P0A7G6 2-353): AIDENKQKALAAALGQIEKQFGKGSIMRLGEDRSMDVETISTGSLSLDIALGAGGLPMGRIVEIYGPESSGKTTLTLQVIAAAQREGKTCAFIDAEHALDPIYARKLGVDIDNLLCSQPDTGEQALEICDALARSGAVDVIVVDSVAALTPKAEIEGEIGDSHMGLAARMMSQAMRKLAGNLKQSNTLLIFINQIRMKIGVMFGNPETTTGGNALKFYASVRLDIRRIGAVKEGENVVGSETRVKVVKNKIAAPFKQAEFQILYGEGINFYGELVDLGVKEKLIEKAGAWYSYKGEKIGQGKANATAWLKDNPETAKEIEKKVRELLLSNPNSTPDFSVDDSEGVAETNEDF
substance,measurement,value
318 bp biotinylated HPRT cssDNA probe (primers hExo3-2A and h/m300B),activity (% pHPRT clones),76
